How the values were obtained:
[1] = molecular target: the molecule itself; test: negative-stain EM
[2] = molecular target: the molecule itself; test: cross-linking

B1: fPanx1ΔC (frog Pannexin 1 truncated at Lys357, residues 1-357) (domain or fragment, UniProt B3DLA5 1-357, looked up)
chain: MAIAHIATEYVFSDFLLKDPPESKYKGLRLELAVDKLVSCIAVGLPLLLISLAFAQEITLGSQISCFAPTSFSWRQAAYVDSFCWAAVQQKHLSQSDSGNVPLWLHKFFPYILLLVAVLLYLPNLFWRFTAAPHLSSDLKFVMEELDKCYNRDIKDIKAANNLNSSDKRDGLNSPVVSENLQQSLWEIPLSHYKYPIVEQYLKTKNNSYGLIIKYLICRVVTLIIVFTACIYLGYYISLFSLTDEFTCNIRTGILRNDTALPPLVQCKLIAVGVFRLLSYINLIIYVLIMPFIIYAMLVPFRKTANVLKVYEVLPTFSVQQAPSKTYDDHSLFLLFLEENVSELKSYKFLKVLENIK
modifications: glycosylated in insect cells (upper band sensitive to PNGaseF; site not stated)
stoichiometry N [1]: 7
stoichiometry N [2]: ~7

— paper doi:10.1101/2020.12.31.425019 (bioRxiv, 2020)
